How the values were obtained:
fnip1_human FNIP1 = target: T1, fnip1_human FNIP1 (UniProt Q8TF40)
T1 sequence: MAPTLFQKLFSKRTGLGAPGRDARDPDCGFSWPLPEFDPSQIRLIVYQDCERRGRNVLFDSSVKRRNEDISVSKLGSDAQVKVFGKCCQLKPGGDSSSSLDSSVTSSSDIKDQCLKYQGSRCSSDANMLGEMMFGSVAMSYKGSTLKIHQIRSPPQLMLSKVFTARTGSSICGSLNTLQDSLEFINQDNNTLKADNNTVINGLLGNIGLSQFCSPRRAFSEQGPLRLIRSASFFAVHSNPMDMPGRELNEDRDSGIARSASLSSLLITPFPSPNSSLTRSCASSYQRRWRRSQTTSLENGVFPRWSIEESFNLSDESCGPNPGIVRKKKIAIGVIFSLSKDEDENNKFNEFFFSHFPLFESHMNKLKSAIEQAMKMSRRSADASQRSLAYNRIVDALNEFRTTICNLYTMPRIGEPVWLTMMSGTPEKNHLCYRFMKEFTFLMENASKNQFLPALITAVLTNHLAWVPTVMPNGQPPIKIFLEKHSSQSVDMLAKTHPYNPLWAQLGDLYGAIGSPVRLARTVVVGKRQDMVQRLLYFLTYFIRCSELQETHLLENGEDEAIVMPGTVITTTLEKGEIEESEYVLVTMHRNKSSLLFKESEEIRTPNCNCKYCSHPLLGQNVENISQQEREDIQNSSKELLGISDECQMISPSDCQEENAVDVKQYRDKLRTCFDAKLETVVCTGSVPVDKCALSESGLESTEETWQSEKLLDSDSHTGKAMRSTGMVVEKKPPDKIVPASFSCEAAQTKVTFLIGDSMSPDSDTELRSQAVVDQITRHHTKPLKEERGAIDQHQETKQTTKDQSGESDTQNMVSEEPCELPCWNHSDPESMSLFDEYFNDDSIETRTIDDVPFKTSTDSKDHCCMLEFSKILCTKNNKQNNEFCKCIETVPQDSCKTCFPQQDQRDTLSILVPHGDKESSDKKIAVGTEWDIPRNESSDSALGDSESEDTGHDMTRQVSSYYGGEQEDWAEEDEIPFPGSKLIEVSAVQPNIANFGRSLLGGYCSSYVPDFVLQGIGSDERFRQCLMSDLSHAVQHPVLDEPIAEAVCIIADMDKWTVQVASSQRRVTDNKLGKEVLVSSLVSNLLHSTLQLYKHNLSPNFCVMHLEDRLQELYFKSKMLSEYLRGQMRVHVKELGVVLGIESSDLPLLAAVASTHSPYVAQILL

tbd2b_human TBC1D2B = target: T2, tbd2b_human TBC1D2B (UniProt Q9UPU7)
T2 sequence: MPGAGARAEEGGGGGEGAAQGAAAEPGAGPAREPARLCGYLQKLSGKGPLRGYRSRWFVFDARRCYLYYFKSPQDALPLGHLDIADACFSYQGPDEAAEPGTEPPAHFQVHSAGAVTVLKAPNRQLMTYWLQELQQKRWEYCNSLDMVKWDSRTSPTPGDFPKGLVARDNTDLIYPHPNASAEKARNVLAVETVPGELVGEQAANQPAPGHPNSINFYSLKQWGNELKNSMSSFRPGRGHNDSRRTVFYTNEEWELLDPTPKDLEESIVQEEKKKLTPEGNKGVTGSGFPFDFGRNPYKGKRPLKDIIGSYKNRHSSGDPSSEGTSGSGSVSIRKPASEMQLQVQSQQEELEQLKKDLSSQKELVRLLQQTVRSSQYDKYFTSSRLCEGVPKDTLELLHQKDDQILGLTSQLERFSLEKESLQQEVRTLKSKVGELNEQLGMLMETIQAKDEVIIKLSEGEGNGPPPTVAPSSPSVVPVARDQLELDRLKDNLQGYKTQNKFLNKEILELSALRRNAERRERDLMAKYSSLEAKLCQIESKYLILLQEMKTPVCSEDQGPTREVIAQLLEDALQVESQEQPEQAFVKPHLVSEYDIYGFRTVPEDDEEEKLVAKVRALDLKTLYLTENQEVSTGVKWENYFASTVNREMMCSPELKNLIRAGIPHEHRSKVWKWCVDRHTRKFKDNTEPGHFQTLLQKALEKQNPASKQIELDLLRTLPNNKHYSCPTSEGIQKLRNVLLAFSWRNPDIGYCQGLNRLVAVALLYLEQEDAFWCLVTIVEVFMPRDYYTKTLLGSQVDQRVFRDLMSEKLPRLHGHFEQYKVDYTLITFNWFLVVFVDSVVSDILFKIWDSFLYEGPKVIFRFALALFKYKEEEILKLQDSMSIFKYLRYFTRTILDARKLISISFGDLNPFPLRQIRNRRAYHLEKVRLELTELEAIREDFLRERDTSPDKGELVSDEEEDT

Row | Substance | effect of a mutation on the interaction (fnip1_human FNIP1) | effect of a mutation on the interaction (tbd2b_human TBC1D2B)
1 | Microtubule-associated protein 1 light chain 3 beta (Homo sapiens) (from UniProt Q9GZQ8) F52A;L53A | increasing interaction | –
2 | Microtubule-associated protein 1 light chain 3 beta (Homo sapiens) (from UniProt Q9GZQ8) R69A | – | disrupting interaction
